Measured values published in patent publication US20190256864A1 (INDIANA UNIVERSITY RESEARCH AND TECHNOLOGY, published 2019).

Key:
[1] = target: T1, AtPBS1:HA
T1 chain: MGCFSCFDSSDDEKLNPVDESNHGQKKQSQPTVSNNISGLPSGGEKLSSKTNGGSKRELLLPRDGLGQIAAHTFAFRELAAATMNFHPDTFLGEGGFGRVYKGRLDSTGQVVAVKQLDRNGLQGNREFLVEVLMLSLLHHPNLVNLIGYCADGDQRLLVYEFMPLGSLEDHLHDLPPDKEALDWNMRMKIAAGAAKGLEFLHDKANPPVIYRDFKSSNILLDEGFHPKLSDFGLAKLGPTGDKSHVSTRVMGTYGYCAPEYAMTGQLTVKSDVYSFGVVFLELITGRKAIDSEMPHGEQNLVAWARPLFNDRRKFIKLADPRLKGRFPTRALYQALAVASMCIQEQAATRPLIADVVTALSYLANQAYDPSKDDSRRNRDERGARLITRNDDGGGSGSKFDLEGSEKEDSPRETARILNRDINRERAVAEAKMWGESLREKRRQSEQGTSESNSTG

[2] = target: T2, GmPBS1b
T2 chain: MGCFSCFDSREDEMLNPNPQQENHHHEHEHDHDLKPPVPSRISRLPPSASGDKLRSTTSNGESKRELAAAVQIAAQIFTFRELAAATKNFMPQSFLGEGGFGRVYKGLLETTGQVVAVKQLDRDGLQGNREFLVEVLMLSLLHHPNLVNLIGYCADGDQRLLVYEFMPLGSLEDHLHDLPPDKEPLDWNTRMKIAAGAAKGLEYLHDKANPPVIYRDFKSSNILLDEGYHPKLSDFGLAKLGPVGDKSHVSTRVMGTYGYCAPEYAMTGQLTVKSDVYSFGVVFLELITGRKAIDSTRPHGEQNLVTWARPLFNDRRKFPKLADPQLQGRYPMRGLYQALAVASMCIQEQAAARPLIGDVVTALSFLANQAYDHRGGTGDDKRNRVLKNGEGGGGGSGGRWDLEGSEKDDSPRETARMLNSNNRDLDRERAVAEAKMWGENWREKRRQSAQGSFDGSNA

[3] = target: T3, GmPBS1a
T3 chain: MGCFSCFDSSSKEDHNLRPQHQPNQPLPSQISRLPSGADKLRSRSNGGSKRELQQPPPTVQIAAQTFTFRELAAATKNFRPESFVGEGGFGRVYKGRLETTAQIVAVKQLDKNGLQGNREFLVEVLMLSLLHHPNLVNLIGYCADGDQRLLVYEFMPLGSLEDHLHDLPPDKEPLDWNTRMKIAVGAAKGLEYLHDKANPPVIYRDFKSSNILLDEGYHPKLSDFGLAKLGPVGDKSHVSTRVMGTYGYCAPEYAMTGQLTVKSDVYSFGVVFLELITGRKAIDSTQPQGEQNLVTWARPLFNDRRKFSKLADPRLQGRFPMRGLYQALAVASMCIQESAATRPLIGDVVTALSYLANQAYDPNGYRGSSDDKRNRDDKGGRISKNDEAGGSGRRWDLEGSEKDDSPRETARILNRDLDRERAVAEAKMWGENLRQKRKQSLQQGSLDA

[4] = target: T4, HvPBS1-2:HA
T4 chain: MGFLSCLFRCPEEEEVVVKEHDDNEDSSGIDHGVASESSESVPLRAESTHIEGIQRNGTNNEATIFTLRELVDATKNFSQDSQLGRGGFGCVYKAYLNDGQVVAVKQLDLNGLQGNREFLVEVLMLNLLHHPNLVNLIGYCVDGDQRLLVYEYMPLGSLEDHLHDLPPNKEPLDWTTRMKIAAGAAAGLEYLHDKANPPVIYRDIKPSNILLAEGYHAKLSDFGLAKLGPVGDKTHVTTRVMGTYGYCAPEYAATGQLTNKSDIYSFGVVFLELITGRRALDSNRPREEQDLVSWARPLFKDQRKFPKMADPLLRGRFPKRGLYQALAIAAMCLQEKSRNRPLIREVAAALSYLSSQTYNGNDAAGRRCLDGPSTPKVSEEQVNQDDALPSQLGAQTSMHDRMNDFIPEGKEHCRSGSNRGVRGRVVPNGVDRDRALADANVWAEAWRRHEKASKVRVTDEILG

[5] = target: NbPBS1:HA
[6] = target: T5, HvPBS1-1:HA
T5 chain: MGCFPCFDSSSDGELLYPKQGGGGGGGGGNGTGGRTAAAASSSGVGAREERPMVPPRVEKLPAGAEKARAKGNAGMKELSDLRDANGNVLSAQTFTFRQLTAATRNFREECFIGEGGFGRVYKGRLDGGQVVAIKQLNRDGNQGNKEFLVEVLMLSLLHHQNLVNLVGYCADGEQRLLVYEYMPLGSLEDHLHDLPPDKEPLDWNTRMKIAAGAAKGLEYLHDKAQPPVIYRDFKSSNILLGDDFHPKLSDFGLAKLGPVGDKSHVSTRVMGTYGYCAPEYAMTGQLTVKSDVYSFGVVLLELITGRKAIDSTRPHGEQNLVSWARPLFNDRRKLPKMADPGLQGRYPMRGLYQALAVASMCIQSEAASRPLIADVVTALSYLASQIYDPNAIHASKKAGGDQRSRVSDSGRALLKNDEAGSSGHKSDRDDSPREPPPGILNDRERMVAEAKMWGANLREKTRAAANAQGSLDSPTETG

[7] = target: T6, GmPBS1c
T6 chain: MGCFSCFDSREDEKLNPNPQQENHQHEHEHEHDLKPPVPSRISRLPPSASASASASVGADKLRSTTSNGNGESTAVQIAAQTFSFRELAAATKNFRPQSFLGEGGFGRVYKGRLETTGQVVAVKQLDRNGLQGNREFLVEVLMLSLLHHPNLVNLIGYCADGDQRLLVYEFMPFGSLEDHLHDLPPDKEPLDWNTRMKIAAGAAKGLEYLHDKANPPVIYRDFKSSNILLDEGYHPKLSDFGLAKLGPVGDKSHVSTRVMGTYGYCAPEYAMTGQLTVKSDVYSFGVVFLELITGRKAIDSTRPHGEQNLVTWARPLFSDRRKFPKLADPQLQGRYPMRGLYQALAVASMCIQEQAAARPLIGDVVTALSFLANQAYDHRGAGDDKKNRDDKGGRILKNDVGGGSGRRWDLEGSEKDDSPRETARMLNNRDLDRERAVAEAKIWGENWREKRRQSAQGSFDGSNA

B1: AvrPphB:myc (protein)
chain: MKIGTQATSLAVLHNQESHAPQAPIAVRPEPAHAIPEIPLDLAIRPRTRGIHPFLAMTLGDKGCASSSGVSLEDDSHTQVSLSDFSVASRDVNHNNICAGLSTEWLVMSSDGDAESRMDHLDYNGEGQSRGSERHQVYNDALRAALSNDDEAPFFTASTAVIEDAGFSLRREPKTVHASGGSAQLGQTVAHDVAQSGRKHLLSLRFANVQGHAIACSCEGSQFKLFDPNLGEFQSSRSAAPQLIKGLIDHYNSLNYDVACVNEFRVS
Question: Which “cleavage of the substrate (immunoblot after co-expression in N. benthamiana)” value [1] does the source give for B1 here?
Answer: The value was “immunoblots showing cleavage of PBS1 proteins from Arabidopsis (At), soybean (Gm) and barley (Hv) by AvrPphB”.

Question: And the “cleavage of the substrate” value [2]?
Answer: The value was “AvrPphB induces cleavage of all three soybean PBS1 proteins”.

Question: And the “cleavage of the substrate” value [3]?
Answer: Its value is “AvrPphB induces cleavage of all three soybean PBS1 proteins”.

Question: And the “cleavage of the substrate (Western blot after transient co-expression in N. benthamiana)” value [4]?
Answer: Its value is “HvPBS1-1:HA and HvPBS1-2:HA are each cleaved by AvrPphB:myc”.

Question: And the “cleavage of the substrate (immunoblot after transient co-expression in N. benthamiana)” value [5]?
Answer: The value was “Co-expression with AvrPphB:myc, but not the protease inactive mutant, resulted in cleavage of NbPBS1:HA within 6 hours post-transgene expression”.

Question: And the “cleavage of the substrate (Western blot after transient co-expression in N. benthamiana)” value [6]?
Answer: The value was “HvPBS1-1:HA and HvPBS1-2:HA are each cleaved by AvrPphB:myc”.

Question: And the “cleavage of the substrate” value [7]?
Answer: The value was “AvrPphB induces cleavage of all three soybean PBS1 proteins”.
